In US20070086998A1:

Molecular target: HLA-DR as expressed on the tumor cell line
Assay: cell-based or functional assay

B1: MS-GPC-8-27-41 (IgG4 form) (antibody, V domains shown)
VH: QVELKESGPALVKPTQTLTLTCTFSGFSLSTSGVGVGWIRQPPGKALEWLALIDWDDDKYYSTSLKTRLTISKDTSKNQVVLTMTNMDPVDTATYYCARSPRYRGAFDYWGQGTLVTVSS
VL: DIVLTQPPSVSGAPGQRVTISCSGSESNIGNNYVQWYQQLPGTAPKLLIYDNNQRPSGVPDRFSGSKSGTSASLAITGLQSEDEADYYCQSYDMNVHVFGGGTKLTVLG
- % Killing by mAb; ARH-77 (DR 12); 50 nM, 4 h: 85%
- % Killing by mAb; BJAB (DR 12,13); 50 nM, 4 h: 71%
- % Killing by mAb; BONNA-12; 50 nM, 4 h: 92%
- % Killing by mAb; DOHH-2 (DR 1,2); 50 nM, 4 h: 59%
- % Killing by mAb; EOL-1; 50 nM, 4 h: 69%
- % Killing by mAb; GRANTA-519 (DR 2,11); 50 nM, 4 h: 78%
- % Killing by mAb; HC-1; 50 nM, 4 h: 93%
- % Killing by mAb; HD-MY-Z; 50 nM, 4 h: 69%
- % Killing by mAb; HDLM-2; 50 nM, 4 h: 88%
- % Killing by mAb; KARPAS-299 (DR 1,2); 50 nM, 4 h: 82%
- % Killing by mAb; KARPAS-422 (DR 2,4); 50 nM, 4 h: 66%
- % Killing by mAb; KM-H2; 50 nM, 4 h: 86%
- % Killing by mAb; L1236; 50 nM, 4 h: 63%
- % Killing by mAb; L-363; 50 nM, 4 h: 26%
- % Killing by mAb; L-428 (DR 12); 50 nM, 4 h: 91%
- % Killing by mAb; LP-1; 50 nM, 4 h: 73%
- % Killing by mAb; MHH-CALL-4 (DR 1,2); 50 nM, 4 h: 63%
- % Killing by mAb; MHH-PREB-1; 50 nM, 4 h: 4%
- % Killing by mAb; MN-60 (DR 10,13); 50 nM, 4 h: 69%
- % Killing by mAb; NALM-1 (DR 1,4); 50 nM, 4 h: 82%
- % Killing by mAb; RAJI (DR 10,17); 50 nM, 4 h: 84%
- % Killing by mAb; RPMI-8226; 50 nM, 4 h: 29%
- % Killing by mAb; SR-786 (DR 1,2); 50 nM, 4 h: 53%
- killing of melanoma cell line WM 115: 21%

B2: MS-GPC-8-10-57 (IgG4 form) (antibody, V domains shown)
VH: QVELKESGPALVKPTQTLTLTCTFSGFSLSTSGVGVGWIRQPPGKALEWLALIDWDDDKYYSTSLKTRLTISKDTSKNQVVLTMTNMDPVDTATYYCARSPRYRGAFDYWGQGTLVTVSS
VL: DIVLTQPPSVSGAPGQRVTISCSGSESNIGNNYVQWYQQLPGTAPKLLIYDNNQRPSGVPDRFSGSKSGTSASLAITGLQSEDEADYYCQSYDLIRHVFGGGTKLTVLG
- % Killing by mAb; ARH-77 (DR 12); 50 nM, 4 h: 88%
- % Killing by mAb; BJAB (DR 12,13); 50 nM, 4 h: 67%
- % Killing by mAb; BONNA-12; 50 nM, 4 h: 91%
- % Killing by mAb; DOHH-2 (DR 1,2); 50 nM, 4 h: 60%
- % Killing by mAb; EOL-1; 50 nM, 4 h: 49%
- % Killing by mAb; GRANTA-519 (DR 2,11); 50 nM, 4 h: 78%
- % Killing by mAb; HC-1; 50 nM, 4 h: 86%
- % Killing by mAb; HD-MY-Z; 50 nM, 4 h: 57%
- % Killing by mAb; HDLM-2; 50 nM, 4 h: 84%
- % Killing by mAb; KARPAS-299 (DR 1,2); 50 nM, 4 h: 79%
- % Killing by mAb; KARPAS-422 (DR 2,4); 50 nM, 4 h: 68%
- % Killing by mAb; KM-H2; 50 nM, 4 h: 88%
- % Killing by mAb; L1236; 50 nM, 4 h: 66%
- % Killing by mAb; L-363; 50 nM, 4 h: 24%
- % Killing by mAb; L-428 (DR 12); 50 nM, 4 h: 91%
- % Killing by mAb; LP-1; 50 nM, 4 h: 70%
- % Killing by mAb; MHH-CALL-4 (DR 1,2); 50 nM, 4 h: 46%
- % Killing by mAb; MHH-PREB-1; 50 nM, 4 h: 8%
- % Killing by mAb; MN-60 (DR 10,13); 50 nM, 4 h: 66%
- % Killing by mAb; NALM-1 (DR 1,4); 50 nM, 4 h: 78%
- % Killing by mAb; RAJI (DR 10,17); 50 nM, 4 h: 86%
- % Killing by mAb; RPMI-8226; 50 nM, 4 h: 26%
- % Killing by mAb; SR-786 (DR 1,2); 50 nM, 4 h: 44%

B3: MS-GPC-8-6-13 (IgG4 form) (antibody, V domains shown)
VH: QVELKESGPALVKPTQTLTLTCTFSGFSLSTSGVGVGWIRQPPGKALEWLALIDWDDDKYYSTSLKTRLTISKDTSKNQVVLTMTNMDPVDTATYYCARSPRYRGAFDYWGQGTLVTVSS
VL: DIVLTQPPSVSGAPGQRVTISCSGSESNIGANYVTWYQQLPGTAPKLLIYDNNQRPSGVPDRFSGSKSGTSASLAITGLQSEDEADYYCQSYDYDHYVFGGGTKLTVLG
- % Killing by mAb; ARH-77 (DR 12); 50 nM, 4 h: 87%
- % Killing by mAb; BJAB (DR 12,13); 50 nM, 4 h: 64%
- % Killing by mAb; BONNA-12; 50 nM, 4 h: 86%
- % Killing by mAb; DOHH-2 (DR 1,2); 50 nM, 4 h: 53%
- % Killing by mAb; EOL-1; 50 nM, 4 h: 53%
- % Killing by mAb; GRANTA-519 (DR 2,11); 50 nM, 4 h: 73%
- % Killing by mAb; HC-1; 50 nM, 4 h: 93%
- % Killing by mAb; HD-MY-Z; 50 nM, 4 h: 72%
- % Killing by mAb; HDLM-2; 50 nM, 4 h: 90%
- % Killing by mAb; KARPAS-299 (DR 1,2); 50 nM, 4 h: 76%
- % Killing by mAb; KARPAS-422 (DR 2,4); 50 nM, 4 h: 71%
- % Killing by mAb; KM-H2; 50 nM, 4 h: 87%
- % Killing by mAb; L1236; 50 nM, 4 h: 66%
- % Killing by mAb; L-363; 50 nM, 4 h: 19%
- % Killing by mAb; L-428 (DR 12); 50 nM, 4 h: 92%
- % Killing by mAb; LP-1; 50 nM, 4 h: 73%
- % Killing by mAb; MHH-CALL-4 (DR 1,2); 50 nM, 4 h: 43%
- % Killing by mAb; MHH-PREB-1; 50 nM, 4 h: 11%
- % Killing by mAb; MN-60 (DR 10,13); 50 nM, 4 h: 67%
- % Killing by mAb; NALM-1 (DR 1,4); 50 nM, 4 h: 65%
- % Killing by mAb; RAJI (DR 10,17); 50 nM, 4 h: 83%
- % Killing by mAb; RPMI-8226; 50 nM, 4 h: 19%
- % Killing by mAb; SR-786 (DR 1,2); 50 nM, 4 h: 26%

B4: MS-GPC-8-6 (Fab) (Fab, V domains shown)
VH: QVQLKESGPALVKPTQTLTLTCTFSGFSLSTSGVGVGWIRQPPGKALEWLALIDWDDDKYYSTSLKTRLTISKDTSKNQVVLTMTNMDPVDTATYYCARSPRYRGAFDYWGQGTLVTVSS
VL: DIVLTQPPSVSGAPGQRVTISCSGSSSNIGSNYVSWYQQLPGTAPKLLIYDNNQRPSGVPDRFSGSKSGTSASLAITGLQSEDEADYYCQSYDYDHYVFGGGTKLTVLG
- maximum capacity to kill MHH-Call 4 cells: 76%

B5: MS-GPC-8-17 (Fab) (Fab, V domains shown)
VH: QVQLKESGPALVKPTQTLTLTCTFSGFSLSTSGVGVGWIRQPPGKALEWLALIDWDDDKYYSTSLKTRLTISKDTSKNQVVLTMTNMDPVDTATYYCARSPRYRGAFDYWGQGTLVTVSS
VL: DIVLTQPPSVSGAPGQRVTISCSGSSSNIGSNYVSWYQQLPGTAPKLLIYDNNQRPSGVPDRFSGSKSGTSASLAITGLQSEDEADYYCQSYDFSVYVFGGGTKLTVLG
- maximum capacity to kill MHH-Call 4 cells: 78%

B6: MS-GPC-8-Fab (Fab, V domains shown)
VH: QVQLKESGPALVKPTQTLTLTCTFSGFSLSTSGVGVGWIRQPPGKALEWLALIDWDDDKYYSTSLKTRLTISKDTSKNQVVLTMTNMDPVDTATYYCARSPRYRGAFDYWGQGTLVTVSS
VL: DIVLTQPPSVSGAPGQRVTISCSGSSSNIGSNYVSWYQQLPGTAPKLLIYDNNQRPSGVPDRFSGSKSGTSASLAITGLQSEDEADYYCQSYDMPQAVFGGGTKLTVLG
- maximum capacity to kill MHH-Call 4 cells: 65%
